This is an account of results in publication doi:10.1101/2023.07.07.548106, “CXCL17 binds efficaciously to glycosaminoglycans with the potential to modulate chemokine signalling” (bioRxiv, 2023).

This data set deals with the molecule itself. Nature of the data set: reducing SDS-PAGE and Western blot; serial dilutions of recombinant CXCL17 (24-119), 1.25-10 uM, on reducing 12% Bis-Tris SDS-PAGE, blotted with anti-CXCL17; bands of 14 kDa and 28 kDa read as monomer and dimer; 28 kDa species at 5 uM and above. (In general: A western blot detects proteins with antibodies after separation by electrophoresis.)

B1: recombinant human CXCL17 (24-119) (natural protein, UniProt Q6UXB2 24-119, looked up)
chain: LNPGVARGHRDRGQASRRWLQEGGQECECKDWFLRAPRRKFMTVSGLPKKQCPCDHFKGNVKKTRHQRHHRKPNKHSRACQQFLKQCQLRSFALPL
notes: human CXCL17, residues Leu24-Leu119 of the 119-residue precursor (Q6UXB2), without the predicted signal peptide; the commercially available form; also called Leu24-Leu119 form of CXCL17; source: bought: R&D Systems; produced in E. coli
With B1, the “ratio of monomer:dimer” value is 3 monomer:dimer and the “stoichiometry N” value came to 2.

What is called stoichiometry N is the number of molecules, sites or subunits per partner or assembly.
